What was measured:
[1] = target: histone H2B, in the mononucleosome (X. laevis, UniProt P02281 2-126); test: cross-linking
AUC = target: the molecule itself; test: AUC

binding result [1]: binds
B1: Swi6 (natural protein)
chain: MKKGGVRSYRRSSTSKRSVIDDDSEPELPSMTKEAIASHKADSGSSDNEVESDHESKSSSKKLKENAKEEEGGEEEEEDEYVVEKVLKHRMARKGGGYEYLLKWEGYDDPSDNTWSSEADCSGCKQLIEAYWNEHGGRPEPSKRKRTARPKKPEAKEPSPKSRKTDEDKHDKDSNEKIEDVNEKTIKFADKSQEEFNENGPPSGQPNGHIESDNESKSPSQKESNESEDIQIAETPSNVTPKKKPSPEVPKLPDNRELTVKQVENYDSWEDLVSSIDTIERKDDGTLEIYLTWKNGAISHHPSTITNKKCPQKMLQFYESHLTFRENE
stoichiometry N (AUC): 2
